These results are taken from the supplement of paper PMC12042874.

± gives the uncertainty stated by the source.

The nature of the data set: amyloid nucleation score (Sup35N fusion, yeast selection) (log enrichment); library NNK2; higher = more nucleation; inactive = no reads after selection. The method in brief: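 Sup35N fusions to peptides of 20 random codons were expressed in psi-negative yeast, induced 24 hours with 100 μM copper sulfate, and grown 7 days at 30°C on medium lacking adenine and uracil. Input and output plasmid inserts were sequenced by Illumina. The nucleation score is the DiMSum log enrichment of output over input reads, centred on the mode score of non-aggregating sequences. Sequences with under 100 input reads were excluded.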
In the case of GNVSYHSCVW, the amyloid nucleation score was found to be 0.449 ± 0.36.

In turn, TLGSLLLLMSWVEGLQKHLI returned an amyloid nucleation score of 0.888 ± 0.48.

In the case of QTRTRNLLIAQVECRGRSSW, the amyloid nucleation score entry was “inactive”.

Substance MDYTFSLQTMCGVWYCYWGR registered an amyloid nucleation score of 1.31 ± 0.31.

FPFKCTSQDSFFFNFKWSRR displayed an amyloid nucleation score of 3.25 ± 0.17.

GNVYHLPDCLNLTWVLKIKN yielded an amyloid nucleation score of -0.944 ± 0.39.

Regarding DGKVSC, the amyloid nucleation score result was “inactive”.

MVTTSSVSNADLNVDMWLEP returned an amyloid nucleation score of 1.01 ± 0.2.

In turn, VSNTEMQTVHVPAGLLPSGF returned an amyloid nucleation score of -0.27 ± 1.1.

Consider GCVNYNGRCEVDGRAD, for which the amyloid nucleation score is -0.227 ± 0.23.

For the substance GFIYLILTL, the amyloid nucleation score worked out at 1.28 ± 0.13.

VKHTFLRKFWMHRSIESYGH displayed an amyloid nucleation score of -0.111 ± 0.38.

Take LLLCYYVFASHKFCCGDGVL: the amyloid nucleation score is -0.302 ± 0.76.

MLIPRVFISHVDICGYISCS gave an amyloid nucleation score of 4.626 ± 0.036.

NGNVVADWI had an amyloid nucleation score of 0.809 ± 0.27.

In the case of LTHSRNLRKVRTNRNNETHV, the amyloid nucleation score came out at 0.005 ± 1.

Substance NERFFKILCWLFRRNSFTIE came in with an amyloid nucleation score of -2.24 ± 1.

In the case of FCTNSYSFMDGTSCWAELRA, the amyloid nucleation score was found to be 0.594 ± 0.47.

EGTFGAPFVTSLLSLRFECV: the amyloid nucleation score is -0.85 ± 0.63.

YKVQTLDAPNYRFIGVFVRS gave an amyloid nucleation score of -0.711 ± 1.1.

Take HYGTTFVISL: the amyloid nucleation score came out at 3.85 ± 0.1.

As for VRSKVFALVGAFSMIKFRGC, the amyloid nucleation score result was “inactive”.

VVTGSMDSCGQPKVSSSSAS: the amyloid nucleation score turned out to be 0.294 ± 0.38.

RCLNQTTYRNNSPCAVLWCM showed an amyloid nucleation score of 7.028 ± 0.058.

With PATVVILS, the amyloid nucleation score is 1.23 ± 0.45.

As to MVGCFWVMFVGREIYSRVRS, the amyloid nucleation score was -0.915 ± 0.26.

Regarding RRKANRVQFLSEYFLVCFVH, the amyloid nucleation score entry was “inactive”.

In turn, YYLVV had an amyloid nucleation score of -0.614 ± 0.56.

As for KAIFSCDARFVRWNAHNREC, the amyloid nucleation score entry is “inactive”.

The substance VRCNFISVWSCDVESIVVES showed an amyloid nucleation score of 5.096 ± 0.046.

RIIGTDLSRLWWIKFKVKRG yielded an amyloid nucleation score of -0.091 ± 0.65.

Take IGTVAPVDLTAYSRERLFRM: the amyloid nucleation score result is “inactive”.

On to YVRYGP, for which the amyloid nucleation score is -0.289 ± 0.26.

In the case of RILWK, the amyloid nucleation score entry is “inactive”.

The substance SVYQVRLLFGDLRANKAVVS displayed an amyloid nucleation score of -0.494 ± 0.56.

For the substance DSLFIACVSLF, the amyloid nucleation score is -0.26 ± 0.63.

MGFQVYLGRGLNDFKAE gave an amyloid nucleation score of 2.66 ± 0.11.

Turning to LTYYLRSFVIPSWG, the amyloid nucleation score result was “inactive”.

Take RRWQTTS: the amyloid nucleation score entry was “inactive”.

As for PIYCINRFDNWYLL, the amyloid nucleation score came to 5.94 ± 0.041.

Consider MELTSN, for which the amyloid nucleation score result was “inactive”.

Substance CLWHWSNGRNVGKIYLFAVT gave an amyloid nucleation score of -0.377 ± 0.24.

On to MNVMNQSSFHMV, for which the amyloid nucleation score was -0.108 ± 1.1.

For the substance ISRGRRYRTPVEILGGHMRH, the amyloid nucleation score came out at 0.917 ± 0.53.

Turning to YTNHSLNMHLWCRNS, the amyloid nucleation score result is “inactive”.

Regarding YTYSYATLNMWFQLT, the amyloid nucleation score was 6.59 ± 0.033.

For the substance SKRFIVIATLNTYMFQKLEF, the amyloid nucleation score result was “inactive”.

In the case of SLGCSAFR, the amyloid nucleation score is -1.62 ± 0.62.

For the substance KSLLWHLQLLAKT, the amyloid nucleation score is 0.174 ± 0.63.

VVWGERVHGIWLMCYCNWTG yielded an amyloid nucleation score of 5.51 ± 0.091.

Take SIGNIVVLVEERSVRQPTLF: the amyloid nucleation score amounted to 2.79 ± 0.14.

Take RRIINWPNSGIGIPRSKSMF: the amyloid nucleation score entry was “inactive”.

For the substance VGINLSSATGMFEGKIQDNA, the amyloid nucleation score is -0.757 ± 0.37.

VVRCRWQDTRTVSQGWVIP showed an amyloid nucleation score of 0.97 ± 0.33.

The substance YKFSPIHNSRCLNSLHWPKA had an amyloid nucleation score of 0.439 ± 0.74.

In turn, RYINWLQYECNTLCAVDKSL displayed an amyloid nucleation score of -0.436 ± 0.76.

Substance GRGAAILYMECYAVAEVCTF showed an amyloid nucleation score of 0.108 ± 0.26.

With SVLKYS, the amyloid nucleation score was -0.334 ± 0.63.

In turn, SSGFPE returned an amyloid nucleation score of -0.846 ± 0.42.

AVVTPKMIMMGWTEGGINVR displayed an amyloid nucleation score of -0.864 ± 0.76.

Consider RSRARSWFLDKDMLLSKDRA, for which the amyloid nucleation score entry is “inactive”.

HTYVRVYLRGELCHPNCMNA: the amyloid nucleation score worked out at 6.348 ± 0.032.

Turning to RLMRAKCMQWVSFQ, the amyloid nucleation score was -0.034 ± 0.4.

On to GLTSFMLDVLRGETAHRGEG, for which the amyloid nucleation score is 0.972 ± 0.52.

In the case of YAKNYSILQACQLDHWEFGV, the amyloid nucleation score was 4.04 ± 0.056.

On to GNFVHTYNIK, for which the amyloid nucleation score is 0.526 ± 0.66.

For FRSNSDLISFERASFR, the amyloid nucleation score was -1.62 ± 0.55.

The substance HTHGGFSHRYGSRWGQYLSW came in with an amyloid nucleation score of 5.53 ± 0.063.

Turning to YNYPSVNIRLKIDLAGSLGC, the amyloid nucleation score turned out to be 2.65 ± 0.097.

Turning to GYSILKC, the amyloid nucleation score result is “inactive”.

FYFDGQLV: the amyloid nucleation score was -0.743 ± 0.76.

For the substance LWSFKYFSVCYNLWTIMKGG, the amyloid nucleation score result was “inactive”.

WDIFICLVL registered an amyloid nucleation score of -0.063 ± 0.74.

In turn, LSYVDWKCAVFDICW displayed an amyloid nucleation score of 3.53 ± 0.043.

Consider RILYMMDFSFGANSIYFYWN, for which the amyloid nucleation score came out at 4.4 ± 0.065.

As to IDGRDSFCQGGNRTCSKGCC, the amyloid nucleation score was -0.303 ± 0.65.

Regarding YAIKMGFASQVSVEFRWLYK, the amyloid nucleation score was -0.244 ± 0.28.

For DSSVSAPMSSFDRWTTHCVL, the amyloid nucleation score was 0.373 ± 0.43.

AHNDVNGVFLMPVRSLDFKH: the amyloid nucleation score was -1.17 ± 0.64.

On to VYKQVRNKVCSYLSLTERRW, for which the amyloid nucleation score is 0.654 ± 0.57.

Regarding LSLVEIFLGMRSLEVFCWVE, the amyloid nucleation score is -0.709 ± 0.28.

Substance PMRMKFCQWLFHPP had an amyloid nucleation score of -0.983 ± 0.61.

Consider KYFRICRVYLNTLLPLVTLV, for which the amyloid nucleation score entry was “inactive”.

Substance SMVKKLQMESPAFSVGIFWV registered an amyloid nucleation score of 7.74 ± 0.085.

The substance DCLNRLY had an amyloid nucleation score of 0.138 ± 0.76.

Turning to ICCCFIWP, the amyloid nucleation score came out at 7.044 ± 0.044.

SSYRRLTQSTLRVDRHRLFY yielded an amyloid nucleation score of 0.732 ± 0.4.

Take MCNFRSWGALLNKRAHGVGS: the amyloid nucleation score came to 0.307 ± 0.65.

RLFYRYWCL yielded an amyloid nucleation score of -0.797 ± 0.35.

In turn, LNMPLLYDYPCYNSWDRYYS returned an amyloid nucleation score of -1.5 ± 0.53.

LFLSLKYPLSYYASTVDNLA had an amyloid nucleation score of 0.6 ± 0.74.

Consider RSFYIAVSYMGCICIMPIRR, for which the amyloid nucleation score is 2.89 ± 0.13.

The substance NEWAN had an amyloid nucleation score of -1.31 ± 0.62.

As for LLMVRVGRSQVRSNKNRH, the amyloid nucleation score came to 5.984 ± 0.054.

Substance RIYFGQIRGDW registered an amyloid nucleation score of 4.04 ± 0.12.

With ARPIKFYKKLYFSCMIELLR, the amyloid nucleation score was -1.38 ± 0.54.

In the case of RCSTFFEYSQTIPHYLVTLF, the amyloid nucleation score is -0.91 ± 0.44.

For PNVCKLYMWQFGTLNQAPQR, the amyloid nucleation score was 8.399 ± 0.065.

Consider WTTIEFRIKGNFM, for which the amyloid nucleation score was determined as 1.59 ± 0.19.

Substance FKSLVSMVENDWMS displayed an amyloid nucleation score of -0.855 ± 0.44.

In the case of LDIYLLDMLWPLCAVLSNIG, the amyloid nucleation score was -0.541 ± 0.38.

Consider TTDRTDCLSFQLNFTDMKRG, for which the amyloid nucleation score was determined as 6.08 ± 0.073.

The substance AFCTVSSCFMSSSLPI yielded an amyloid nucleation score of 5.3 ± 0.06.
